Experiment [1] addresses T1, FAT domain of human FAK (892-1052) (human, UniProt Q05397 892-1052).
T1 construct: focal adhesion kinase (FAK), human, FAT domain, residues 892-1052; 15N-labelled (M9 minimal medium) in the NMR titrations; also called FAK FAT; focal adhesion targeting domain; source: E. coli BL21, expressed as GST-fusion protein (pGexP2), purified as described previously (Arold et al., 2002)
T1 sequence (looked up): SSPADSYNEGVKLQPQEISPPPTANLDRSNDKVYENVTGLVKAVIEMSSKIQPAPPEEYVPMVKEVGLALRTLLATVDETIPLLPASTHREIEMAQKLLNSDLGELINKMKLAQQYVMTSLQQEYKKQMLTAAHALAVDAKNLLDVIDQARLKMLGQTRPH
The experiment is described as follows: differential scanning fluorimetry; 10 μM protein, peptide at 100 and 250 μM, SYPRO Orange; 20 mM HEPES pH 7.5, 150 mM NaCl, 2 mM EDTA, 1 mM TCEP; 20 to 95 °C. To be noted: both partners purified.

In experiment [2] the target is T2, Human α-parvin-CHC (residues 242-372) (human, UniProt Q9NVD7 242-372).
T2 construct: α-parvin, human, C-terminal CH domain, residues 242-372; also called second CH domain of α-parvin; source: E. coli BL21, expressed as GST-fusion protein (pGex 6P1), purified as described previously (Lorenz et al., 2008)
T2 sequence (looked up): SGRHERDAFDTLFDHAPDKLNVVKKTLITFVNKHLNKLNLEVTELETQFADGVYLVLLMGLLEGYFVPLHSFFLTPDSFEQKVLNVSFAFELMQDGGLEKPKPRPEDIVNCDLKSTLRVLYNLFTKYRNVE
The experiment can be described thus: fluorescence polarisation; anisotropy competition assay (ACA): 10 μM FAT or 25 μM α-parvin with 0.1 μM FITC-Ahx-LD4; unlabelled peptide added at 100 and 250 μM. To be noted: both partners purified. Background: Polarisation of emitted light reports the rotation of a fluorescent probe.

The target in experiment [3] is T2, Human α-parvin-CHC (residues 242-372). The experiment can be described thus: fluorescence polarisation; direct anisotropy: FAT or α-parvin titrated, FITC-Ahx-labelled LD4 at 0.1 μM; 20 mM HEPES pH 7.5, 150 mM NaCl, 2 mM EDTA, 2 mM DTT, 0.005% Tween-20; room temperature. To be noted: both partners purified.
The target in experiment [4] is T1, FAT domain of human FAK (892-1052). Described as above. To be noted: both partners purified.
Experiment [5] concerns the target T2, Human α-parvin-CHC (residues 242-372). The experiment is described as follows: fluorescence polarisation + other: differential scanning fluorimetry; the 'qualitative' methods, summed up in one sentence for each peptide: anisotropy competition (unlabelled peptide at 100 and 250 μM against 0.1 μM FITC-Ahx-LD4 with 10 μM FAT or 25 μM α-parvin) and DSF (10 μM protein, peptide at 100 and 250 μM; 20 mM HEPES pH 7.5, 150 mM NaCl, 2 mM EDTA, 1 mM TCEP). To be noted: both partners purified.

Experiment [6] has as its target T1, FAT domain of human FAK (892-1052). Described as above. To be noted: both partners purified.
For experiment [7], the target named is T3, Human α-parvin-CHC (residues 242–372) (human, UniProt Q9NVD7 242-372).
T3 construct: α-parvin, human, second CH domain (CHC), residues 242-372; Purification and fate of the GST are told only in the Supplementary Material and in the cited work (Lorenz et al., 2008); also called second CH domain of α-parvin; source: E. coli BL21, expressed as GST-fusion protein
T3 sequence (looked up): T2 sequence (looked up)
The experiment can be described thus: fluorescence polarisation + MST + ITC + other: differential scanning fluorimetry; synthesized peptides against recombinant LDBDs in vitro; direct anisotropy with labelled candidate peptides, anisotropy competition of unlabelled peptides against fluorescently labelled known LD motifs, ITC, MST and DSF summed up together; 25°C, 20 mM HEPES pH 7.5, 150 mM NaCl, 2 mM EDTA, 1 mM TCEP, unless stated otherwise. To be noted: both partners purified.

Experiment [8] concerns the target T4, FAT domain of human FAK (892–1052) (human, UniProt Q05397 892-1052).
T4 construct: focal adhesion kinase (FAK), human, FAT domain, residues 892-1052; 15N-labelled for the NMR titrations; Purification and fate of the GST are told only in the Supplementary Material and in the cited work (Arold et al., 2002); also called FAK FAT; four-helix FAT domain from FAK; source: E. coli BL21, expressed as GST-fusion protein
T4 sequence (looked up): T1 sequence (looked up)
Described as above. To be noted: both partners purified.

The target of experiment [9] is T5, FAT domain of human FAK (892–1052) (human, UniProt Q05397 892-1052).
T5 chain: T1 sequence (looked up)
The experiment can be described thus: MST.

The target of experiment [10] is T6, rat GIT1 (647-770) (rat, UniProt Q9Z272 647-770).
T6 chain: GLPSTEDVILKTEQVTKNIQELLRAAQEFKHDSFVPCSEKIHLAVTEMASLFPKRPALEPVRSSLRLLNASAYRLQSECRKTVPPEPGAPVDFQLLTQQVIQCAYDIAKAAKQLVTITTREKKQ
The experiment can be described thus: MST.

In experiment [11] the target is T7, Human α-parvin-CHC (residues 242–372) (human, UniProt Q9NVD7 242-372).
T7 chain: T2 sequence (looked up)
The experiment can be described thus: MST.

Experiment [12] addresses T5, FAT domain of human FAK (892–1052). The experiment can be described thus: FP.
In experiment [13] the target is T6, rat GIT1 (647-770). The experiment can be described thus: FP.
Experiment [14] deals with T7, Human α-parvin-CHC (residues 242–372). The experiment can be described thus: FP.
For experiment [15], the target named is T2, Human α-parvin-CHC (residues 242-372). The experiment is described as follows: fluorescence polarisation + MST; the 'quantitative' methods, summed up in one sentence for each peptide: direct anisotropy (protein serially diluted, FITC-Ahx peptide 0.1 μM; 20 mM HEPES pH 7.5, 150 mM NaCl, 2 mM EDTA, 2 mM DTT, 0.005% Tween-20; room temperature) and MST (protein diluted from 560 μM FAT or 530 μM α-parvin, labelled peptide 0.1 μM, 0.05% Tween-20, 25 °C); ITC in selected cases. To be noted: both partners purified.

Experiment [16] addresses T1, FAT domain of human FAK (892-1052). The experiment is described as above. To be noted: both partners purified.
Experiment [17] concerns the target T5, FAT domain of human FAK (892–1052). The experiment is described as follows: ITC. (ITC needs no label: the signal is the heat of the interaction.)
In experiment [18] the target is T6, rat GIT1 (647-770). The experiment can be described thus: ITC.
The target in experiment [19] is T2, Human α-parvin-CHC (residues 242-372). The experiment can be described thus: fluorescence polarisation + MST; the 'quantitative' methods, summed up in one sentence for each peptide: direct anisotropy (protein serially diluted, FITC-Ahx peptide 0.1 μM; 20 mM HEPES pH 7.5, 150 mM NaCl, 2 mM EDTA, 2 mM DTT, 0.005% Tween-20; room temperature) and MST (protein diluted from 560 μM FAT or 530 μM α-parvin, labelled peptide 0.1 μM, 0.05% Tween-20, 25 °C); ITC in selected cases. To be noted: both partners purified. The source holds these as a separate data set.

Experiment [20] has as its target T1, FAT domain of human FAK (892-1052). Described as above. To be noted: both partners purified. The source holds these as a separate data set.
In experiment [21] the target is T8, rat GIT1 (647-770) (rat, UniProt Q9Z272 647-770).
T8 construct: also called GIT1 FAH; GIT1 FAH domain; source: E. coli BL21, expressed as GST-fusion protein (pGex-4T1), purified as described previously (Schmalzigaug et al., 2007)
T8 sequence (looked up): T6 chain
The experiment can be described thus: fluorescence polarisation + MST; 'additional DA and MST experiments' with GIT1: GIT1 serially diluted (MST from 630 μM, standard capillaries, 25 °C), FITC-Ahx peptide 0.1 μM; 20 mM HEPES pH 7.5, 150 mM NaCl, 2 mM EDTA, 2 mM DTT, Tween-20. To be noted: both partners purified.

Where no end group is shown, it is not given here. The star is where a group is joined. FITC = O=C1OC2(c3ccc(O)cc3Oc3cc(O)ccc32)c2ccc(NC(=S)*)cc21; Ahx = NCCCCCC(=O)O

As usually defined, the Kd is the concentration at which binding is half-saturated.

B1: paxillin LD4 peptide, unlabelled (peptide)
peptide: SASSATRELDELMASLSD
notes: paxillin, human, LD4 motif with flanking residues; form without label, used in ACA, DSF, ITC and NMR; source: synthetic peptide, bought: GenScript
Take B1: the binding result in [1] and in experiment [2] was “binds” throughout.

B2: paxillin LD4 peptide, FITC-Ahx-labelled (peptide)
peptide: {FITC-Ahx}-SASSATRELDELMASLSD
notes: paxillin, human, LD4 motif with flanking residues; also called labelled LD4; FITC-Ahx-labelled LD4; source: synthetic peptide, bought: GenScript
In the case of B2, the Kd came out at 25 µM in experiment [3] and 10 µM in [4].

B3: C16orf71 LD motif peptide, unlabelled (peptide)
peptide: EAWDLDDILQSLQGQ
notes: Uncharacterized protein C16orf71, human; core motif 267-276; form without label, used in ACA and DSF; also called CP071; source: synthetic peptide, bought: GenScript
In the case of B3, the binding result in experiment [5] and in experiment [6] was “binds” each time.

B4: RALGAPA1 LD motif peptide (peptide)
peptide: EDVLDELLQYLGVT
modifications: also: N-terminal FITC-Ahx only in labelled form
notes: predicted LD motif of human RALGAPA1; also called RGPA1; source: synthetic peptide, bought: GenScript
Consider B4, for which the binding result in [7] and in [8] was “binds” throughout. For the same molecule, the dissociation constant Kd came to 42.5 µM in [9]; 77.5 µM in experiment [10]; 25.7 µM in [11]; 43.6 µM in [12]; 88 µM in experiment [13]; 49.4 µM in [14].

B5: C16orf71 LD motif peptide, FITC-Ahx-labelled (peptide)
peptide: {FITC-Ahx}-EAWDLDDILQSLQGQ
notes: Uncharacterized protein C16orf71, human; core motif 267-276; labelled form, used in direct anisotropy and MST; also called CP071; source: synthetic peptide, bought: GenScript
For B5, the binding result in experiment [15] and in experiment [16] was “binds” in each case.

B6: EPB41L5 (Band 4.1-like protein 5) LD motif peptide (peptide)
peptide: ATDELDALLASLTENLID
modifications: also: N-terminal FITC-Ahx only in labelled form
notes: predicted LD motif of human EPB41L5 (Band 4.1-like protein 5); also called E41L5; YMO1; source: synthetic peptide, bought: GenScript
For B6, the binding result in [7] and in [8] was “binds” throughout. Further, the dissociation constant (Kd) in experiment [9] was found to be 13 µM; in [11], 4 µM; in experiment [17], 6 µM; in experiment [18], 39.3 µM; in experiment [12] it was 2.7 µM; in experiment [13], 83.6 µM. Also, the dissociation constant Kd in experiment [14] came to 28.2 µM.

B7: RALGAPA1 LD motif peptide, FITC-Ahx-labelled (peptide)
peptide: {FITC-Ahx}-EDVLDELLQYLGVT
notes: core motif 1680-1689; labelled form, used in direct anisotropy and MST; also called RGPA1; source: synthetic peptide, bought: GenScript
For the molecule B7, the binding result in experiment [19] and in [20] was “binds” throughout. The equilibrium dissociation constant (Kd) in experiment [21] is around 80 µM.
